Test results: publication PMC2572730, “Structural Basis for the Recognition of Histone H4 by the Histone-Chaperone RbAp46” (Structure(London, England:1993), 2008)

Tested on: GST-histone H4 1–48
Test: Pull-down of 35S-labeled RbAp46 mutants with GST-histone H4 1–48
Assay type: binding
Settings: autoradiogram, 300 mM NaCl, 20 mM Tris pH 8.0, 5 mM DTT, 0.1% (v/v) NP-40
Description: Figure 2 Histone H4 Recognition by the RbAp46-Binding Pocket (A) Electrostatic surface potential of RbAp46 contoured and color coded at −91 kT (red) and +91 kT (blue). […] The histone H4 peptide is shown as a stick model. The histone H4-binding pocket in RbAp46 is mainly formed by the negatively charged PP loop (which terminates in Pro-362 and Pro-363) and a hydrophobic surface on the N-terminal α helix (helix 1). The interaction of histone H4 residues (Gln-27, Lys-31, Ile-34, Arg-35, Arg-36, Leu-37, Arg-39, and Arg-40) is shown. (B) Detailed view showing the interactions of the hydrophobic Ile-34 and Leu-37 histone H4 residues with Phe-29 and Leu-30 in helix 1 of RbAp46, as well as the positively charged Arg-36, Arg-39, and Arg-40 histone H4 residues with the backbone carbonyl groups in the PP loop and a cluster of acidic residues (Glu-356, Asp-357, and Asp-360) in RbAp46. […] In each experiment, the input lane contains 30% of the ^35S-labeled RbAp46 protein used in each of the pull-down assays. The experiments were carried out in 300 mM NaCl, 20 mM Tris (pH 8.0), 5 mM DTT, and 0.1% (v/v) NP-40.
Recombinant histone H4 and RbAp46 proteins were expressed and purified as described previously ([Verreault et al., 1998; Berger et al., 2004]). Detailed procedures for the generation of the RbAp46/histone H4 peptide and recombinant histone H4 complexes can be found in the Supplemental Data. […]

Row | Molecule | Effect of RbAp46 mutation on interaction with histone H4
1 | E356Q + D357N + E359Q + D360N: RbAp46 mutated in the charged PP loop (protein, UniProt Q16576 2-425, looked up, variant E356Q D357N E359Q D360N) Histone-binding protein RBBP7: ASKEMFEDTVEERVINEEYKIWKKNTPFLYDLVMTHALQWPSLTVQWLPEVTKPEGKDYALHWLVLGTHTSDEQNHLVVARVHIPNDDAQFDASHCDSDKGEFGGFGSVTGKIECEIKINHEGEVNRARYMPQNPHIIATKTPSSDVLVFDYTKHPAKPDPSGECNPDLRLRGHQKEGYGLSWNSNLSGHLLSASDDHTVCLWDINAGPKEGKIVDAKAIFTGHSAVVEDVAWHLLHESLFGSVADDQKLMIWDTRSNTTSKPSHLVDAHTAEVNCLSFNPYSEFILATGSADKTVALWDLRNLKLKLHTFESHKDEIFQVHWSPHNETILASSGTDRRLNVWDLSKIGEEQSAQNAQNGPPELLFIHGGHTAKISDFSWNPNEPWVICSVSEDNIMQIWQMAENIYNDEESDVTTSELEGQGS | disrupt the interaction with histone H4
2 | L30Y: RbAp46 mutated in the hydrophobic surface of helix 1 (protein, 35S-labeled, RbAp46 mutated in the hydrophobic surface of helix 1) MASKEMFEDTVEERVINEEYKIWKKNTPFYYDLVMTHALQWPSLTVQWLPEVTKPEGKDYALHWLVLGTHTSDEQNHLVVARVHIPNDDAQFDASHCDSDKGEFGGFGSVTGKIECEIKINHEGEVNRARYMPQNPHIIATKTPSSDVLVFDYTKHPAKPDPSGECNPDLRLRGHQKEGYGLSWNSNLSGHLLSASDDHTVCLWDINAGPKEGKIVDAKAIFTGHSAVVEDVAWHLLHESLFGSVADDQKLMIWDTRSNTTSKPSHLVDAHTAEVNCLSFNPYSEFILATGSADKTVALWDLRNLKLKLHTFESHKDEIFQVHWSPHNETILASSGTDRRLNVWDLSKIGEEQSAEDAEDGPPELLFIHGGHTAKISDFSWNPNEPWVICSVSEDNIMQIWQMAENIYNDE | disrupt the interaction with histone H4
